Test results from patent US12060408B2, “Screening assays, modulators and modulation of activation of Receptor for Advanced Glycation End-products (RAGE)” (Monash University, priority 2017, dated 2024).
“Also recorded” adds a separate entry of the source. Ends that are not written are not given here.

Key:
[1] = biological target: T1, RAGE (Mus musculus, UniProt Q62151); test: Ang II-induced ICAM-1 gene expression in murine SVEC; assay type: cell-based; conditions: murine SVEC endogenously replete in RAGE; transfected constructs; 1 μM Ang II; FIG. 12A, 12B, 12D
T1 construct: in murine SVEC that are endogenously replete in RAGE expression; host or cells: Svec4-10 mouse endothelial cells
T1 sequence (Q62151 23-402): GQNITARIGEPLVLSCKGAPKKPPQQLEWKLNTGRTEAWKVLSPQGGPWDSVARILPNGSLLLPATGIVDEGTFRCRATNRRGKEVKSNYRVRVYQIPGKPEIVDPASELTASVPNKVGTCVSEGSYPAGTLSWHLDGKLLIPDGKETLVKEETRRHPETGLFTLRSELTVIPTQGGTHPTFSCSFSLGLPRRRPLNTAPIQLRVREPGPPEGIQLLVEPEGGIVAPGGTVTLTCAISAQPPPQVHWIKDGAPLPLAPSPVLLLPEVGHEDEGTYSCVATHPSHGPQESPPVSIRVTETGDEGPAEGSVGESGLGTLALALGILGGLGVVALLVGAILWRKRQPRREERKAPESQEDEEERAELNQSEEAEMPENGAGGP
Experimental: To explore the potential for RAGE constructs to inhibit transactivation of endogenous RAGE, additional experiments were conducted in immortalized mouse endothelial cells (Svec4-10, ATCC) cultured in 10% FBS/DMEM with 25 mM glucose were used. SVEC were transfected with truncated RAGE constructs using Lipofectamine 2000 (Invitrogen) as per manufacturer's instructions, or treated with RAGE oligopeptides (280 μM). Cells were allowed to recover in media containing 10% FBS for 16 hours prior to treatment with 1 μM Ang II.

[2] = tested on: RAGE ligand-independent activation of RAGE by activated AT1R; test: Ang II-induced NFκB activation (p65 gene expression, SEAP reporter) in AT1R-CHO cells with RAGE constructs; assay type: cell-based, human; conditions: construct expressed in AT1R-CHO cells, no wild-type RAGE
Experimental: (§1) Generation of Transgenic Chinese Hamster Ovary Cells
(§2) 100 ng of AT1R-Rluc8 construct was transfected into CHO cells using Lipofectamine 2000 (Thermo). Stable transfectants were selected using G418. AT1R—CHO were then transiently transfected with RAGE constructs using Lipofectamine 2000 (Invitrogen) and incubated for 16 h. The Homo sapiens AGER transcript variant 1 coding sequence (NM_001136) was synthesised and cloned between the NheI and XbaI sites of pCIneo (Promega) to generate the vector pCIneo-RAGE. This plasmid was then used to generate a library of mutant AGER clones (NP_001127). Primers 1-RAGE-SP-5′ and mCherry-XhoI-NotI-3′ were used to amplify the coding sequence of mCherry from the vector pmCherry-C1. The resultant PCR product was then used as template for a second PCR using primers 2-RAGE-SP-5′ and mCherry-XhoI-NotI-3′. The PCR product generated was digested with NheI and NotI and inserted between the NheI and NotI sites of pCIneo to generate pCIneo-SP-mCherry. The sequence of the insert was confirmed by DNA sequencing (Micromon, Monash University). […]
(§3) Cellular Expression of Pro-Inflammatory Markers and Mediators by Quantitative Real-Time PCR
(§4) After 2 hours of exposure to Ang II (1 μM) or the RAGE ligand, S100A8/A9 (5 ng/ml) cells were placed in Trizol, mRNA extracted and cDNA synthesized. Changes in the gene expression of the NFκB subunit, p65 (RelA) or NFκB-activated target genes (e.g ICAM-1, VCAM-1) were estimated by quantitative real-time RT-PCR, performed using the TaqMan system based on real-time detection of accumulated fluorescence (ABI Prism 7700, Perkin-Elmer Inc, PE Biosystems, Foster City, CA, USA). Gene expression was normalized to 18S mRNA and reported as fold change compared to the level of expression in untreated control mice/cells, which were given an arbitrary value of 1.
Oligopeptides (Cherry-TAT (control), mCherry-TAT-RAGE362-404 and mCherry-S391A-TAT-RAGE362-404 were generated by transformation of the Escherichia coli strain ClearColi BL21 (DE3; Lucigen). A single transformed colony was inoculated into 50 ml 2YT medium containing 100 μg/ml ampicillin and the culture was grown overnight at 37° C. with shaking at 250 rev/min. 10 ml overnight culture was used to inoculate 1 litre 2YT medium containing 100 μg/ml ampicillin and the culture was grown at 37° C. with shaking at 250 rev/min. When the cultures reached an OD600 of 0.8, the temperature was shifted to 15° C. for 30 min after which protein expression was induced by the addition of 1 mM isopropyl β-D-1-thiogalacto-pyranoside (IPTG). Following the addition of IPTG the cultures were grown for ˜16 h at 15° C. with shaking at 250 rev/min. Cells were harvested by centrifugation (3500 g, 4° C., 20 min) and resuspended in ice-cold lysis buffer (50 mM Tris pH 7.4, 300 mM NaCl, 10 mM imidazole and 5 mM beta-mercaptoethanol). The resuspended cells were sonicated and insoluble material was pelleted by centrifugation (13 000 g, 4° C., 30 min). The supernatant was filtered (0.2 μm) and applied onto a gravity-flow column with a 1 ml Ni-NTA Agarose resin bed volume (Qiagen) pre-equilibrated with lysis buffer. After the supernatant was passed over the resin, the column was washed with 100 ml of wash buffer (20 mM imidazole, 50 mM Tris pH 7.4, 150 mM NaCl, 5 mM beta-mercaptoethanol). His-tagged TAT-mCherry and TAT-mCherry-RAGE peptides were eluted from the resin using elution buffer (250 mM imidazole, 50 mM Tris pH 7.4, 150 mM NaCl, 5 mM beta-mercaptoethanol). […]

[3] = tested on: primary murine aortic endothelial cells (PMAEC); test: Expression of pro-inflammatory markers by real-time RT-PCR in primary murine aortic endothelial cells; assay type: cell-based, mouse
Experimental: Primary aortic endothelial cells (PMAEC) were isolated from the aortae of (wild-type) C57bl6 mice and AGER KO mice and cultured in Dulbecco's modified Eagle's medium (DMEM)/F12 endothelial cell growth supplement (ECGS) supplemented media. Chinese Hamster Ovary (CHO) cells were cultured using F12 media (10% FCS with 2 mM glutamine). Human microvascular endothelial cells (HMEC) were cultured in MCDB 131 medium (10% FCS with 10 mM glutamine, EGF and hydrocortisone).
as §3, §4
Selective Silencing of Gene Expression Using siRNA
PMAEC from C57b/6 mice were also transfected with siRNA to RAGE (2 nM) Ambion, ID:s62119), p65 (RelA) (10 nM; Ambion, ID:s72857), MyD88 (10 nM; Ambion. ID:s201719), PKCζ (10 nM; Ambion, ID:s71716), IQGAP-1, Ambion, ID:s78119), Diaph1 (10 nM; sense5′-[…], antisense 3′-[…]; Invitrogen) or scrambled control #1 (2 nM or 10 nM; Ambion) using Lipofectamine RNAiMAX (Invitrogen) as per manufacturer's instructions. Cells were allowed to recover in media containing 10% FBS for 16 hours prior to treatment with 1 μM Ang II or 5 ng/ml of the RAGE ligand, S100A8/A9, as a signalling control.

[4] = tested on: RAGE ligand-dependent activation of RAGE; test: S100A8/A9-induced NFκB activation (p65 gene expression) in CHO cells expressing RAGE constructs; assay type: cell-based, human
Experimental: as §1, §2, §3, §4
To measure the induction of NFκB activity by 1 μM Ang II, or 5 ng/ml of the RAGE-ligand S100A8/A9 as a signalling control, AT1R—CHO cells were transfected with 0.4 μg of plasmids encoding NFκB-SEAP or β-galactosidase (β-Gal) using Lipofectamine 2000 (Invitrogen) as per manufacturer's instructions. After 24 hours, cells transfected with each plasmid combination were then treated with Ang II (1 μM) or left untreated and incubated for 4 hours before cell supernatants and cell lysates were collected. Cell supernatants were analysed using a chemiluminescent SEAP reporter gene assay (Roche Applied Science) to detect SEAP production after treatment. To control for transfection efficiency, cell lysates were assayed for β-Gal using a commercially available kit (Promega).

## E380A-RAGE370-390: alanine mutant of RAGE370-390 (GEERKAPENQAEEEERAELNQ; cytosolic tail peptide; UniProt Q15109 370-390, looked up, variant E380A)
[1]
  induction of ICAM-1 gene expression by Ang II: continue to inhibit

## E382A-RAGE370-390: alanine mutant of RAGE370-390 (GEERKAPENQEEAEERAELNQ; cytosolic tail peptide; UniProt Q15109 370-390, looked up, variant E382A)
[1]
  induction of ICAM-1 gene expression by Ang II: continue to inhibit

## E384A-RAGE370-390: alanine mutant of RAGE370-390 (GEERKAPENQEEEEARAELNQ; cytosolic tail peptide; UniProt Q15109 370-390, looked up, variant E384A)
[1]
  induction of ICAM-1 gene expression by Ang II: continue to inhibit

## Q379A-RAGE370-390: glutamine-to-alanine mutant of RAGE370-390 (GEERKAPENAEEEEERAELNQ; cytosolic tail peptide; UniProt Q15109 370-390, looked up, variant Q379A)
[1]
  induction of ICAM-1 gene expression by Ang II: lost

## Q379K-RAGE370-390: glutamine-to-lysine mutant of RAGE370-390 (GEERKAPENKEEEEERAELNQ; cytoplasmic region peptide; UniProt Q15109 370-390, looked up, variant Q379K)
[1]
  induction of ICAM-1 gene expression by Ang II: retain the greatest inhibitory effect

## Q390A-RAGE370-390: glutamine-to-alanine mutant of RAGE370-390 (GEERKAPENQEEEEERAELNA; cytoplasmic region peptide; UniProt Q15109 370-390, looked up, variant Q390A)
[1]
  induction of ICAM-1 gene expression by Ang II: lost

## Q390K-RAGE370-390: glutamine-to-lysine mutant of RAGE370-390 (GEERKAPENQEEEEERAELNK; cytosolic tail peptide; UniProt Q15109 370-390, looked up, variant Q390K)
[1]
  induction of ICAM-1 gene expression by Ang II: retain the greatest inhibitory effect

## RAGE22-404: full length wild-type RAGE construct
[1]
  induction of ICAM-1 gene expression by Ang II: does not affect

## RAGE379-404: N-truncated RAGE construct, functional substitute of wild type RAGE (QEEEEERAELNQSEEPEAGESSTGGP; UniProt Q15109 379-404, looked up, fragment)
[2]
  ability of the RAGE construct to be activated and mediate pro-inflammatory signalling in response to Ang II: does not result in a loss of function; also recorded: able to be activated

## RAGE385-404: N-truncated RAGE construct eliminating both 380 and 384 (RAELNQSEEPEAGESSTGGP; UniProt Q15109 385-404, looked up, fragment)
[2]
  ability of the RAGE construct to be activated and mediate pro-inflammatory signalling in response to Ang II: loss of the modulatory actions

## S391A-RAGE22-404: full length RAGE construct with S391 mutated to alanine
[1]
  induction of ICAM-1 gene expression by Ang II: able to prevent

## TNFα
[3]; PMAEC from C57bl6 mice
  canonical and non-canonical signalling downstream of NFκB (CXCL2, CXCL12): selectively induce canonical signalling

## m-Cherry-RAGE370-395: C-truncated S391X-RAGE mutant fused to mCherry (GEERKAPENQEEEEERAELNQSEEPE; also: mCherry fusion, not in chain; UniProt Q15109 370-395, looked up, fragment)
[1]
  induction of ICAM-1 gene expression by Ang II: prevents

## mCherry-S391A-RAGE362-404: N-truncated mCherry-RAGE cytosolic tail construct with S391A (LWQRRQRRGEERKAPENQEEEEERAELNQAEEPEAGESSTGGP; also: mCherry fusion; UniProt Q15109 362-404, looked up, fragment S391A)
[1]
  induction of ICAM-1 gene expression by Ang II: able to prevent

## soluble RAGE22-331: decoy receptor with ligand-binding affinity [reference compound]
[3]; PMAEC from wild type mice
  inhibition of Ang II (1 μM)-induced ICAM-1, VCAM-1 and MCP-1: do not inhibit
  inhibition of S100A8/A9-induced ICAM-1: inhibit
[4]; AT1R-CHO cells also expressing full length RAGE
  inhibition of S100A8/A9-induced p65 expression: inhibit

B1: S100A8/A9: RAGE ligand (protein)
chain 1: MLTELEKALNSIIDVYHKYSLIKGNFHAVYRDDLKKLLETECPQYIRKKGADVWFKELDINTDGAVNFQEFLILVIKMGVAAHKKSHEESHKE
chain 2: MTCKMSQLERNIETIINTFHQYSVKLGHPDTLNQGEFKELVRKDLQNFLKKENKNEKVIEHIMEDLDTNADKQLSFEEFIMLMARLTWASHEKMHEGDEGPGHHHKPGLGEGTP
[3]; PMAEC from AGER KO mice
  induction of pro-inflammatory genes: does not lead to the induction
[3]; PMAEC from C57bl6 mice, Ang II 1 μM or S100A8/A9
  expression of pro-inflammatory genes (ICAM-1, VCAM-1, TNFα, MCP-1): induction
[3]; PMAEC with AGER expression silenced using siRNA
  NFκB-dependent induction of VCAM-1 gene expression: preventing
[4]; CHO cells expressing the RAGE polypeptide, 5 ng/ml
  activation of p65-NFκB: able to induce activation
